Source: patent US6759384 (AVENTIS PHARMACEUTICALS, dated 2004)
Non-standard residues stand in square brackets, D forms with d. No end group written: not given here. *: point of attachment. (pOH)C6H4‑OCH(CH3)CO = N-terminal acyl cap: 4-hydroxyphenyl-O-CH(CH3)-C(=O)- (2-(4-hydroxyphenoxy)propionyl), CC(Oc1ccc(O)cc1)C(=O)*; (pOH)C6H4‑CH2CHOH‑CO = N-terminal acyl cap: 4-hydroxyphenyl-CH2-CH(OH)-C(=O)- (4-hydroxyphenyllactyl); Phe(4-Cl) = N[C@@H](Cc1ccc(Cl)cc1)C(=O)O; Phe(4-F) = N[C@@H](Cc1ccc(F)cc1)C(=O)O; dTic = O=C(O)[C@H]1Cc2ccccc2CN1; βAla = NCCC(=O)O; Sar = CNCC(=O)O; For = O=C*

Target: human factor Xa (Enzyme Research Laboratories, Inc.) (human, UniProt P00742 41-179; P00742 235-488, limits assumed)
Sequence (P00742 41-179 limits assumed, chain 1 of 2): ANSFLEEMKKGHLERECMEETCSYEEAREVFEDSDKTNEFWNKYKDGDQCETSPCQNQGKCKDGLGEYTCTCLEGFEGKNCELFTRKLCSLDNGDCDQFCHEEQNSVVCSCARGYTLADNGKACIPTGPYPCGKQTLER
Sequence (P00742 235-488 limits assumed, chain 2 of 2): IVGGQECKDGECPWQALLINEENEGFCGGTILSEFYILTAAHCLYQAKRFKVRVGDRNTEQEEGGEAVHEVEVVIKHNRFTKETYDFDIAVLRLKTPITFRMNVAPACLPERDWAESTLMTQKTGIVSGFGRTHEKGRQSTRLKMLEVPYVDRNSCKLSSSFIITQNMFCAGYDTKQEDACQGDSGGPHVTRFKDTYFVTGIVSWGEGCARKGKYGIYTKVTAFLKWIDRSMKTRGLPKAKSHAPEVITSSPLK
Experiment: chromogenic FXa inhibition
Method: TBS-P buffer (50 mM Tris-Cl, pH 7.8, 200 mM NaCl, 0.05% (w/v) PEG-8000, 0.02% (w/v) NaN_3) was used for this assay. The IC$50$ was determined by combining in appropriate wells of a Costar half-area microtiter plate 25 μl human factor Xa (Enzyme Research Laboratories, Inc.; South Bend Ind.) in TBS-P; 40 μl 10% (v/v) DMSO in TBS-P (uninhibited control) or various concentrations of a peptide to be tested diluted in 10% (v/v) DMSO in TBS-P; and substrate S-2765 (Nα-benzyloxycarbonyl-D-Arg-Gly-L-Arg-p-nitroanilide; Kabi Pharmacia, Inc.; Franklin Ohio) in TBS-P.
The assays were performed by pre-incubating the peptide inhibitor plus enzyme for 10 min, then the assay was initiated by adding substrate to obtain a final volume of 100 μl. The initial velocity of chromogenic substrate hydrolysis was measured by the change in absorbance at 405 nm using a Bio-tek Instruments kinetic plate reader (Ceres UV900HDi) at 25° C. during the linear portion of the time course (usually 1–5 min after addition of substrate). The concentration of inhibitor that caused a 50% decrease in the rate of substrate hydrolysis was predicted by linear regression after plotting the relative rates of hydrolysis (compared to the uninhibited control) versus the log of the peptide concentration. The enzyme concentration was 0.5 nM and substrate concentration was 140 μM.

| Binder | Ki [µM] |
| --- | --- |
| GYIRD-NH2 [G-Y-I-R-D-NH2] | < 100 |
| GYIRS-NH2 [G-Y-I-R-S-NH2] | < 100 |
| GYIRW-NH2 [G-Y-I-R-W-NH2] | < 100 |
| GYIRV-NH2 [G-Y-I-R-V-NH2] | < 100 |
| GYIRY-NH2 [G-Y-I-R-Y-NH2] | < 100 |
| {(pOH)C6H4‑CH2CH2CO}-IRLA-NH2 [(pOH)C6H4-CH2CH2CO-I-R-L-A-NH2] | < 100 |
| {(pOH)C6H4‑CH2CHOH‑CO}-IRLP-NH2 [(pOH)C6H4-CH2CHOH-CO-I-R-L-P-NH2] | < 100 |
| [Phe(4-F)]IRLP-NH2 (N-terminus assumed; SMILES CC[C@H](C)[C@H](NC(=O)[C@@H](N)Cc1ccc(F)cc1)C(=O)N[C@@H](CCCNC(=N)N)C(=O)N[C@@H](CC(C)C)C(=O)N1CCC[C@H]1C(N)=O, also called Phe(pF)-I-R-L-P-NH) [F(pF)-I-R-L-P-NH2] | < 100 |
| IHLW[dY]IRLP-NH2 (N-terminus assumed; SMILES CC[C@H](C)[C@H](N)C(=O)N[C@@H](Cc1c[nH]cn1)C(=O)N[C@@H](CC(C)C)C(=O)N[C@@H](Cc1c[nH]c2ccccc12)C(=O)N[C@H](Cc1ccc(O)cc1)C(=O)N[C@H](C(=O)N[C@@H](CCCNC(=N)N)C(=O)N[C@@H](CC(C)C)C(=O)N1CCC[C@H]1C(N)=O)[C@@H](C)CC) [I-H-L-W-y-I-R-L-P-NH2] | < 100 |
| XIRLP (N,N-diethyl (Et(Et)) on Y1; C-term NH2) [Et(Et)Y-I-R-L-P-NH2] | < 100 |
| GYIRLPPV-NH2 [G-Y-I-R-L-P-P-V-NH2] | < 100 |
| {CH3CH2‑O‑CO}-YIRLP-NH2 [CH3CH2-O-CO-Y-I-R-L-P-NH2] | < 100 |
| For-YIRLP-NH2 [For-Y-I-R-L-P-NH2] | < 100 |
| [βAla]YIRG (also: cyclisation unknown (underlining lost), may be cyclic; underlining lost) [βAla-Y-I-R-G] | < 100 |
| GYIRLPSQ-NH2 [G-Y-I-R-L-P-S-Q-NH2] | < 100 |
| Cl2CHCO-YIRLP-NH2 [Cl2CHCO-Y-I-R-L-P-NH2] | < 100 |
| {CH3‑SO2}-YIRLP-NH2 [CH3-SO2-Y-I-R-L-P-NH2] | < 100 |
| IHLWYIRLP-NH2 [I-H-L-W-Y-I-R-L-P-NH2] | < 100 |
| GYIRLPQT-NH2 [G-Y-I-R-L-P-Q-T-NH2] | < 100 |
| {CF2H‑CO}-YIRLP-NH2 [CF2H-CO-Y-I-R-L-P-NH2] | < 100 |
| FIRLYVWN-NH2 [F-I-R-L-Y-V-W-N-NH2] | < 100 |
| EYIRLK-NH2 (also: cyclisation unknown (underlining lost), may be cyclic; underlining lost) [E-Y-I-R-L-K-NH2] | < 100 |

Other lines, results leading:

| Ki [µM] | Binder |
| --- | --- |
| < 100 | NGYIRLIH-NH2 [N-G-Y-I-R-L-I-H-NH2] |
| < 100 | GYIRF-NH2 [G-Y-I-R-F-NH2] |
| < 100 | IRLP (N-term (pOH)C6H4-CH2CH2CO; C-term NH2) [(pOH)C6H4-CH2CH2CO-I-R-L-P-NH2] |
| < 100 | {(pOH)C6H4‑OCH2CO}-IRLP-NH2 [(pOH)C6H4-OCH2CO-I-R-L-P-NH2] |
| < 100 | {(pOH)C6H4‑OCH(CH3)CO}-IRLP-NH2 (SMILES CC[C@H](C)[C@H](NC(=O)C(C)Oc1ccc(O)cc1)C(=O)N[C@@H](CCCNC(=N)N)C(=O)N[C@@H](CC(C)C)C(=O)N1CCC[C@H]1C(N)=O) [(pOH)C6H4-OCH(CH3)CO-I-R-L-P-NH2] |
| < 100 | {CH3‑CHCl‑CO}-YIRLP-NH2 [CH3-CHCl-CO-Y-I-R-L-P-NH2] |
| < 100 | {CF3‑CF2CO}-YIRLP-NH2 [CF3-CF2CO-Y-I-R-L-P-NH2] |
| < 100 | CYIRLC-NH2 (also: cyclisation unknown (underlining lost), may be cyclic (disulfide); underlining lost) [C-Y-I-R-L-C-NH2] |
| < 100 | [βAla]YIRG-NH2 (N-terminus assumed; SMILES CC[C@H](C)[C@H](NC(=O)[C@H](Cc1ccc(O)cc1)NC(=O)CCN)C(=O)N[C@@H](CCCNC(=N)N)C(=O)NCC(N)=O) [βAla-Y-I-R-G-NH2] |
| < 100 | [dTic]IRLAAFT-NH2 (N-terminus assumed; SMILES CC[C@H](C)[C@H](NC(=O)[C@H]1Cc2ccccc2CN1)C(=O)N[C@@H](CCCNC(=N)N)C(=O)N[C@@H](CC(C)C)C(=O)N[C@@H](C)C(=O)N[C@@H](C)C(=O)N[C@@H](Cc1ccccc1)C(=O)N[C@H](C(N)=O)[C@@H](C)O) [D-Tic-I-R-L-A-A-F-T-NH2] |
| < 100 | EYIRLPK-NH2 (also: cyclisation unknown (underlining lost), may be cyclic; underlining lost) [E-Y-I-R-L-P-K-NH2] |
| < 100 | {CClF2‑CO}-YIRLP-NH2 [CClF2-CO-Y-I-R-L-P-NH2] |
| < 100 | GYIRLPAM-NH2 [G-Y-I-R-L-P-A-M-NH2] |
| < 100 | {CH3O‑CO}-YIRLP-NH2 [CH3O-CO-Y-I-R-L-P-NH2] |
| < 100 | [Phe(4-Cl)]IRI[Sar]-NH2 (N-terminus assumed; SMILES CC[C@H](C)[C@H](NC(=O)[C@@H](N)Cc1ccc(Cl)cc1)C(=O)N[C@@H](CCCNC(=N)N)C(=O)N[C@H](C(=O)N(C)CC(N)=O)[C@@H](C)CC) [F(pCl)-I-R-I-Sar-NH2] |
| < 100 | GGYIRG-NH2 [G-G-Y-I-R-G-NH2] |
| < 100 | For-[dY]IRLP-NH2 [For-y-I-R-L-P-NH2] |
| < 100 | {4‑MeO‑C6H4‑CO}-IRLA-NH2 [4-MeO-C6H4-CO-I-R-L-A-NH2] |
| < 100 | IQLGYIRLP-NH2 [I-Q-L-G-Y-I-R-L-P-NH2] |
| < 100 | FIRLPHYG-NH2 [F-I-R-L-P-H-Y-G-NH2] |
